According to patent US20130039857:

How the values were obtained:
[1] = biological target: LKB1 (endogenous, in skeletal muscle and 3T3L1 adipocyte extracts) (UniProt Q9WTK7)
[2] = test system: His-LKB1 fusion protein (purified)
[3] = test system: 141 overlapping peptides (12-15 residues in length) corresponding to the LKB1 sequence

Substance: Fyn expressed from pcDNA3.1-Fyn-V5
- tyrosine phosphorylation of LKB1 immunoprecipitates from 3T3L1 adipocytes (PY100 immunoblot) [1]: Immunoblotting of LKB1 immunoprecipitates with the PY100 phosphotyrosine antibody demonstrated Fyn-induced tyrosine phosphorylation of LKB1

Substance: Fyn-CA, constitutively active Fyn mutant (pcDNA3.1-Fyn-CA(Y527F)-V5)
- tyrosine phosphorylation of endogenous LKB1 immunoprecipitated from transfected tibialis anterior muscle (PY100 immunoblot) [1]: In the absence of Fyn-CA, there was a relatively low level of LKB1 tyrosine phosphorylation that was significantly increased by the expression of Fyn-CA

Substance: recombinant His-FynT kinase (Calbiochem)
- tyrosine phosphorylation in an in vitro kinase reaction (PY100 phosphotyrosine immunoblot) [2]: purified His-LKB1-tagged fusion protein was tyrosine phosphorylated by purified recombinant Fyn kinase in vitro
- in vitro phosphorylation of an overlapping peptide array (Phosphosite Detector) [3]: This analysis identified five tyrosines (Y60, Y156, Y166, Y261, and Y365) as potential LKB1 phosphorylation acceptor sites for the Fyn kinase
